Assay [1] has as its target Mto2-134A136A (full-length, recombinant) (S. pombe) (UniProt Q9USP7). Description: SEC-MALS. Background: In gel filtration, larger molecules generally elute earlier.
Assay [2] addresses Mto2-134AAA (full-length, recombinant) (S. pombe) (UniProt Q9USP7). Nature of the assay: SEC-MALS.

One may read the stoichiometry N as a count of units in the complex or per binding partner. Consider “Mto2-134A136A (full-length, recombinant) (from UniProt Q9USP7 1-397) (natural protein)”, for which the stoichiometry N in assay [1] was 2.

On to “Mto2-134AAA (full-length, recombinant) (from UniProt Q9USP7 1-397) (natural protein)”, for which the stoichiometry N in assay [2] was 2.
